In one data set the target is T1, PaIDH2 (Pseudomonas aeruginosa, UniProt Q9I0L4).
T1 construct: gene idh; full length, 741 aa, 6xHis-tag, pET-28b(+) NdeI/XhoI, E. coli Rosetta (DE3), 81 kDa subunit, oligomer depends on salt (176-320 kDa)
T1 sequence (Q9I0L4 1-741): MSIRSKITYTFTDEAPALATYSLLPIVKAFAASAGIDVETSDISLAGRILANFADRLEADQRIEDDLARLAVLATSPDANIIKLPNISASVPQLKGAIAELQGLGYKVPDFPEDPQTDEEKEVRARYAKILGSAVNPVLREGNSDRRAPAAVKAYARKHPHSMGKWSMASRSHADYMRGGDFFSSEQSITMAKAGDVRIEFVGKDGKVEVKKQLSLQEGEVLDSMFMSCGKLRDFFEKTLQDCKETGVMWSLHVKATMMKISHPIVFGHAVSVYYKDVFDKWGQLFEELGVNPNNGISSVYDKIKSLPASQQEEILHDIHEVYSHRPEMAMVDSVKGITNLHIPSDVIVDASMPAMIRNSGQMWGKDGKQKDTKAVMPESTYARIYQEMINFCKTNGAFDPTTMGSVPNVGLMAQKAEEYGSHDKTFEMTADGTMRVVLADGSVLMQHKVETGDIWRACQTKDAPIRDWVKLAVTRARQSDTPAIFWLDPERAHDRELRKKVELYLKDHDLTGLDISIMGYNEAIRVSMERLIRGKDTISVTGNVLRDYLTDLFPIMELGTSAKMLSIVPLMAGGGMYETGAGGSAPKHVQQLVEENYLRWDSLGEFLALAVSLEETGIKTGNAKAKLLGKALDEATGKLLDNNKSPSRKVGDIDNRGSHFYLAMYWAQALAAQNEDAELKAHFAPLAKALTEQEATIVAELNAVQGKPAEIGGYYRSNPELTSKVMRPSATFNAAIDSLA
Put plainly: effect on IDH activity, product formation. The conditions noted are these: read-out: Relative Activity (%) / PaIDH2. The format is biochemical. From the text: effect on IDH activity, product formation on PaIDH2

In another data set the target is T2, PaIDH1 (Pseudomonas aeruginosa, UniProt Q9I0L5).
T2 construct: gene icd; full length, 418 aa, 6xHis-tag, pET-28b(+) NdeI/XhoI, E. coli Rosetta (DE3), 45 kDa subunit, homodimer
T2 sequence (Q9I0L5 1-418): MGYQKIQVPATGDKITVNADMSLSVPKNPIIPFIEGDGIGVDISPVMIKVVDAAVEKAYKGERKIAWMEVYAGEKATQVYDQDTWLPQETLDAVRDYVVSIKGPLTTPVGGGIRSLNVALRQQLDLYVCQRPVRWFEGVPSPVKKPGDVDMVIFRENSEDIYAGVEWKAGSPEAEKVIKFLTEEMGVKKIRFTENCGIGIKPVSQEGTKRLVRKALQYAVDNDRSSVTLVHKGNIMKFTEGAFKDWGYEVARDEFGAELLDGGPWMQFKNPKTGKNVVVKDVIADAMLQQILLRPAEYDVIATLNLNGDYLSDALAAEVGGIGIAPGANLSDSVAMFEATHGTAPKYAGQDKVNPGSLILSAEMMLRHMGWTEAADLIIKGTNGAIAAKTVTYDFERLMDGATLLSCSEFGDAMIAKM
Put plainly: effect on IDH activity, product formation. It counts as biochemical. The settings on record: read-out: Relative Activity (%) / PaIDH1. From the text: effect on IDH activity, product formation on PaIDH1

Substrate in data set [1]: O=C(O)CC(C(=O)O)C(O)C(=O)O
Put plainly: purified protein. The format is biochemical, Pseudomonas aeruginosa. The settings on record: 500 μM NADP+, 2 mM MnCl2, 50 mM Tris-HCl pH 7.5, 25 °C.

Substrate in data set [2]: NC(=O)c1ccc[n+]([C@@H]2O[C@H](COP(=O)(O)OP(=O)(O)OC[C@H]3O[C@@H](n4cnc5c(N)ncnc54)[C@H](OP(=O)(O)O)[C@@H]3O)[C@@H](O)[C@H]2O)c1
Put plainly: purified protein. The format is biochemical, Pseudomonas aeruginosa. The settings on record: 1 mM DL-isocitrate, 2 mM MnCl2, 50 mM Tris-HCl pH 7.5, 25 °C, varied: cofactor.

For orientation: Km means the concentration of substrate that gives half-maximal velocity. In general, kcat refers to the maximal rate divided by the concentration of active sites. By kcat/Km is commonly meant the second-order rate constant that governs catalysis at low substrate concentration.

Consider `Nc1ncnc2c1ncn2[C@@H]1O[C@H](COP(=O)(O)OP(=O)(O)OP(=O)(O)O)[C@@H](O)[C@H]1O` [ATP], for which the activity at 2000 µM at PaIDH2 turned out to be 75.9 ± 5.92%.
Consider `Nc1ncnc2c1ncn2[C@@H]1O[C@H](COP(=O)(O)OP(=O)(O)O)[C@@H](O)[C@H]1O` [ADP], for which the activity at 2000 µM on PaIDH1 came out at 81.8 ± 3.55%; at PaIDH2 it was 82.7 ± 3.37%.
For `O=C(O)CCC(=O)C(=O)O` [α-KG] the same measures were 79.5 ± 4.64% and 82.8 ± 5.65%.
For the molecule `O=C(O)CC(=O)C(=O)O` [OAA], on PaIDH1, the activity at 2000 µM was 77.5 ± 4.56%.

B1: PaIDH1 (Pseudomonas aeruginosa PAO1) (protein)
chain: MGYQKIQVPATGDKITVNADMSLSVPKNPIIPFIEGDGIGVDISPVMIKVVDAAVEKAYKGERKIAWMEVYAGEKATQVYDQDTWLPQETLDAVRDYVVSIKGPLTTPVGGGIRSLNVALRQQLDLYVCQRPVRWFEGVPSPVKKPGDVDMVIFRENSEDIYAGVEWKAGSPEAEKVIKFLTEEMGVKKIRFTENCGIGIKPVSQEGTKRLVRKALQYAVDNDRSSVTLVHKGNIMKFTEGAFKDWGYEVARDEFGAELLDGGPWMQFKNPKTGKNVVVKDVIADAMLQQILLRPAEYDVIATLNLNGDYLSDALAAEVGGIGIAPGANLSDSVAMFEATHGTAPKYAGQDKVNPGSLILSAEMMLRHMGWTEAADLIIKGTNGAIAAKTVTYDFERLMDGATLLSCSEFGDAMIAKM
notes: full length, 418 aa, 6xHis-tag, pET-28b(+) NdeI/XhoI, E. coli Rosetta (DE3), 45 kDa subunit, homodimer
Consider B1, for which, in “purified protein [1]”, the Michaelis-Menten constant (Km) was determined as 14.41 ± 1.82 µM, the kcat turned out to be 29.3 ± 10.9 s⁻¹ and the kcat/Km is 2.1e+06 ± 930000 M⁻¹ s⁻¹. In the data set “purified protein [2]”, the Km was found to be 20.00 ± 6.29 µM, the turnover number (kcat) stood at 105 ± 19.9 s⁻¹ and the kcat/Km was determined as 5.42e+06 ± 970000 M⁻¹ s⁻¹.

B2: PaIDH2 (Pseudomonas aeruginosa PAO1) (protein)
chain: MSIRSKITYTFTDEAPALATYSLLPIVKAFAASAGIDVETSDISLAGRILANFADRLEADQRIEDDLARLAVLATSPDANIIKLPNISASVPQLKGAIAELQGLGYKVPDFPEDPQTDEEKEVRARYAKILGSAVNPVLREGNSDRRAPAAVKAYARKHPHSMGKWSMASRSHADYMRGGDFFSSEQSITMAKAGDVRIEFVGKDGKVEVKKQLSLQEGEVLDSMFMSCGKLRDFFEKTLQDCKETGVMWSLHVKATMMKISHPIVFGHAVSVYYKDVFDKWGQLFEELGVNPNNGISSVYDKIKSLPASQQEEILHDIHEVYSHRPEMAMVDSVKGITNLHIPSDVIVDASMPAMIRNSGQMWGKDGKQKDTKAVMPESTYARIYQEMINFCKTNGAFDPTTMGSVPNVGLMAQKAEEYGSHDKTFEMTADGTMRVVLADGSVLMQHKVETGDIWRACQTKDAPIRDWVKLAVTRARQSDTPAIFWLDPERAHDRELRKKVELYLKDHDLTGLDISIMGYNEAIRVSMERLIRGKDTISVTGNVLRDYLTDLFPIMELGTSAKMLSIVPLMAGGGMYETGAGGSAPKHVQQLVEENYLRWDSLGEFLALAVSLEETGIKTGNAKAKLLGKALDEATGKLLDNNKSPSRKVGDIDNRGSHFYLAMYWAQALAAQNEDAELKAHFAPLAKALTEQEATIVAELNAVQGKPAEIGGYYRSNPELTSKVMRPSATFNAAIDSLA
notes: full length, 741 aa, 6xHis-tag, pET-28b(+) NdeI/XhoI, E. coli Rosetta (DE3), 81 kDa subunit, oligomer depends on salt (176-320 kDa)
Consider B2, for which, in the data set “purified protein [1]”, the Km turned out to be 23.61 ± 1.21 µM, the kcat was found to be 171 ± 6.77 s⁻¹ and the specificity constant (kcat/Km) was 7.26e+06 ± 130000 M⁻¹ s⁻¹. Further, in “purified protein [2]”, the Km came to 30.68 ± 2.73 µM, the turnover number (kcat) was determined as 134 ± 17 s⁻¹ and the kcat/Km came out at 4.42e+06 ± 1.13e+06 M⁻¹ s⁻¹.
